Laboratory results: publication PMC10700544

B1: wild type RNase J, BACTH fusions (pUT18 and pKNT25) [Helicobacter pylori] / wild type RNase J, BACTH fusions (pUT18 and pKNT25) [Helicobacter pylori] (parent)
chain 1: MTDNNQNNENHENSSENSKADEMRAGAFERFTNRKKRFRENAQKNAEYSNHEASSHHKKEHRPNKKPNNHHKQKHAKTRNYAQEELDSNKVEGVTEILHVNERGTLGFHKELKKGVEANNKIQVEHLNPHYKMNLNSKASVKITPLGGLGEIGGNMMVIETPKSAIVIDAGMSFPKEGLFGVDILIPDFSYLHQIKDKIAGIIITHAHEDHIGATPYLFKELQFPLYGTPLSLGLIGSKFDEHGLKKYRSYFKIVEKRCPISVGEFIIEWIHITHSIIDSSALAIQTKAGTIIHTGDFKIDHTPVDNLPTDLYRLAHYGEKGVMLLLSDSTNSHKSGTTPSESTIAPAFDTLFKEAQGRVIMSTFSSNIHRVYQAIQYGIKYNRKIAVIGRSMEKNLDIARELGYIHLPYQSFIEANEVAKYPDNEILIVTTGSQGETMSALYRMATDEHRHISIKPNDLVIISAKAIPGNEASVSAVLNFLIKKEAKVAYQEFDNIHVSGHAAQEEQKLMLRLIKPKFFLPVHGEYNHVARHKQTAISCGVPEKNIYLMEDGDQVEVGPAFIKKVGTIKSGKSYVDNQSNLSIDTSIVQQREEVASAGVFVATIFVNKNKQALLESSQFSSLGLVGFKDEKPLIKEIQGGLEVLLKSSNAEILNNPKKLEDHTRNFIRKALFKKFRKYPAIICHAHSF
chain 2: B1 chain 1

Variants of: B1
Test: BACTH (bacterial two hybrid), beta-galactosidase read-out
Conditions: with wild type RNase J, in E. coli, RNJ WT on pUT18, mutant on pKNT25, n ≥ 6, parent: 430, read off a plot
Work on chain 1 K658A yielded a response of 220 Miller units. chain 1 E593A gave a response of 520 Miller units. chain 1 K632A gave a response of 380 Miller units. With chain 1 E661A the response was 180 Miller units. For chain 1 E652A, the response was 210 Miller units. For chain 1 E594A, the response was 440 Miller units. Work on chain 1 E616A yielded a response of 220 Miller units. chain 1 K609A showed a response of 500 Miller units. For chain 1 K647A, the response was 130 Miller units.
